Assay results taken from publication PMC12352893.

Target: purified recombinant cathepsin A (CTSA) (human) (UniProt P10619)
Sequence (P10619 29-480): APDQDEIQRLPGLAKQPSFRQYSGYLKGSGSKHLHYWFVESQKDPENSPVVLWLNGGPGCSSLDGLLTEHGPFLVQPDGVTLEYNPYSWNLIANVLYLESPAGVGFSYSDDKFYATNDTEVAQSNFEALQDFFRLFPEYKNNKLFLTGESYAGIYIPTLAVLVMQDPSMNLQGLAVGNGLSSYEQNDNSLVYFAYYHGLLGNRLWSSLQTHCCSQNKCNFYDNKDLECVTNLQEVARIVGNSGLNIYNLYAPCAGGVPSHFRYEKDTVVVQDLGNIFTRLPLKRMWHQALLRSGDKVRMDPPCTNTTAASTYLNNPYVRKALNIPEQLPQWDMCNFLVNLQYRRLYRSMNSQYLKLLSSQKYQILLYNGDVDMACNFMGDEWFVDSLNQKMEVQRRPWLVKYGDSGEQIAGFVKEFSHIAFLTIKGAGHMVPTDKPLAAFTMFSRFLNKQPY

- NEU1 enzymatic activity (moles of substrate/moles of NEU1/sec) of recombinant NEU1 incubated with CTSA; fold reduction by high HS concentrations (≥0.3 mg/mL): 100 fold
Substance: purified recombinant NEU1 (from UniProt Q99519 48-415) (enzyme)
